Experimental data from US20250186614A1, “COMPACT DRUG RESPONSIVE DOMAINS FOR REGULATION OF FUNCTION/ABUNDANCE AND DELIVERY OF POLYPEPTIDE PAYLOADS” (OBSIDIAN THERAPEUTICS, INC., priority 2022, published 2025).
Substitutions are numbered along the chain they refer to. Numbers in names are those of the source. Where two headings read alike, the source gives them in different places.

B1: FKBP-153: FKBP13 DRD Q72R, S79W, Q84E, A117W, M54A; SEQ ID NO: 103 (protein)
chain: HCPIKSRKGDVLHAHYTGKLEDGTEFDSSLPRNQPFVFWLGTGEVIKGWDQGLLGMCEGEKRKLVIPSELGYGERGWPPKIPGGATLVFEVELLKIER
modifications: Description of sequence: FKBP13-AcGFP-mCherry Fusion; Construct Name: FKBP-153; FKBP13 DRD in Construct : FKBP13 (mutated to match FKBP12 active site Q72RS79W Q84E A117W) (DRD M54A)
B2: FKBP-215: combinatorial FKBP13 mutant construct of Table 10, carries M54A (protein)
chain: B1 chain with P3R, W39S, E44G, V45R, K95Y
modifications: Description of sequence: Construct Name: FKBP-215; Mutation(s): Q72R Q84G A117W V85R DRD P43R M54A K135Y
B3: FKBP-154: FKBP13 DRD Q72R, S79W, Q84W, A117W, M54A; SEQ ID NO: 104 (protein)
chain: B1 chain with W39S
modifications: Description of sequence: FKBP13-AcGFP-mCherry Fusion; Construct Name: FKBP-154; FKBP13 DRD in Construct : FKBP13 (mutated to match FKBP12 active site Q72R S79W Q84W A117W) (DRD M54A)
B4: FKBP-157: FKBP13 DRD Q72R, T82W, Q84E, A117W, M54A; SEQ ID NO: 107 (protein)
chain: B1 chain with W39S, T42W, E44R
modifications: Description of sequence: FKBP13-AcGFP-mCherry Fusion; Construct Name: FKBP-157; FKBP13 DRD in Construct : FKBP13 (mutated to match FKBP12 active site Q72R T82W Q84E A117W) (DRD M54A)
B5: FKBP-158: FKBP13 DRD Q72R, Q84E, A117W, M54A G111E; SEQ ID NO: 108 (protein)
chain: B1 chain with W39S, G71E
modifications: Description of sequence: FKBP13-AcGFP-mCherry Fusion; Construct Name: FKBP-158; FKBP13 DRD in Construct : FKBP13 (mutated to match FKBP12 active site Q72R Q84E A117W) (DRD M54A G111E)
B6: FKBP-117: FKBP13 DRD Q72R, Q84E, A117W, V85R; SEQ ID NO: 67 (protein)
chain: B1 chain with A14M, W39S, V45R
modifications: Description of sequence: FKBP13-AcGFP-mCherry Fusion; Construct Name: FKBP-117; FKBP13 DRD in Construct : FKBP13 (mutated to match FKBP12 active site Q72R Q84E A117W) (DRD V85R)
B7: FKBP-155: FKBP13 DRD Q72R, S79W, Q84R, A117W, M54A; SEQ ID NO: 105 (protein)
chain: B1 chain with E44R
modifications: Description of sequence: FKBP13-AcGFP-mCherry Fusion; Construct Name: FKBP-155; FKBP13 DRD in Construct : FKBP13 (mutated to match FKBP12 active site Q72R S79W Q84R A117W) (DRD M54A)
B8: FKBP-156: FKBP13 DRD Q72R, T82W, Q84W, A117W, M54A; SEQ ID NO: 106 (protein)
chain: B1 chain with W39S, T42W, E44W
modifications: Description of sequence: FKBP13-AcGFP-mCherry Fusion; Construct Name: FKBP-156; FKBP13 DRD in Construct : FKBP13 (mutated to match FKBP12 active site Q72R T82W Q84W A117W) (DRD M54A)
B9: FKBP-197: FKBP13 DRD-AcGFP construct of Table 10 (protein)
chain: B1 chain with A14M, W39S, V45R, E90R
modifications: Description of sequence: Construct Name: FKBP-197; Mutation(s): Q72R Q84E A117W V85R DRD E130R

Legend:
Format in all cases: cell-based
Jurkat cells [1] = test: Tacrolimus dose response of FKBP13-AcGFP-mCherry constructs stably transduced into Jurkat cells, GFP MFI by flow cytometry; parameters: Basal: unit not given here; conditions: for EC90 / Tacrolimus FC: Table 14; for Fold Change: Jurkat cells stably transduced; for Tacrolimus FC: fold change
In short: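 GFP geometric MFI was read by flow cytometry in mCherry+ cells and curve-fitted against tacrolimus dose. Cells were Jurkat E6-1, lentivirus-transduced with FKBP13-AcGFP-mCherry fusion constructs until 10-25% mCherry-positive on day 5 post-transduction.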

Jurkat cells [2] = test: Sirolimus (rapamycin) dose response of FKBP13 constructs stably transduced into Jurkat cells, flow cytometry; conditions: for Fold Change: rapamycin (sirolimus), Jurkat cells stably transduced, Table 8; for EC90 / Rapamycin FC: rapamycin, Table 14; for Rapamycin FC: fold change; for difference between rapamycin and tacrolimus: ratio of EC50 and fold change, Table 9; for EC50 (tacrolimus)/ EC50 (rapamycin): ratio of Table 7 and Table 8 EC50 values; for EC50 (tacrolimus)/ EC50 (rapamycin) / Fold change (tacrolimus)/ Fold change (rapamycin): Jurkat cells; for Fold change (tacrolimus)/ Fold change (rapamycin): ratio of Table 7 and Table 8 fold changes
Method: Normalized EC50 values were calculated from the mCherry normalized GFP MFI values, which accounted for any differences in mCherry intensity between samples.

[3] = Example 4: dose response of FKBP constructs 160-255, Ec50, Ec90 and fold change (raw and normalized to mCherry); conditions: for FC (fold change): fold change during initial analysis
Method: Additional experiments were performed for constructs FKBP-160-292.

[4] = read-out: Tacrolimus EC90 (Norm), tacrolimus, normalized
[5] = read-out: Tacrolimus EC90, tacrolimus
[6] = normalized, read-out: Rapamycin EC90 (Norm)
[7] = FKBP constructs 160-255, not normalized, read-out: EC90
[8] = normalized to mCherry, read-out: EC90 (Norm)

Molecule | EC90 (Jurkat cells [1]; [4]) | EC90 (Jurkat cells [1]; [5]) | Fold Change (Jurkat cells [1]; tacrolimus, Table 7) | Tacrolimus FC (Jurkat cells [1]; tacrolimus) | Fold Change (Jurkat cells [2]) | EC90 (Jurkat cells [2]; read-out: Rapamycin EC90) | Rapamycin FC (Jurkat cells [2]) | EC90 (Jurkat cells [2]; [6]) | difference between rapamycin and tacrolimus (Jurkat cells [2]) | EC50 (tacrolimus)/ EC50 (rapamycin) (Jurkat cells [2]) | Fold change (tacrolimus)/ Fold change (rapamycin) (Jurkat cells [2]) | also measured
B1 | 383 nM | 341 nM | 30.07 | 39.7 | 4.8 | 1520 nM | 6.1 | 1540 nM | largest difference between rapamycin and tacrolimus | 0.20 | 6.26 | 
B2 |  |  |  |  |  |  |  |  |  |  |  | Basal (Jurkat cells [1]; FIG. 48, BR1 (Biorep 1)): 65; FC (Jurkat cells [1]; FIG. 48, BR1 (Biorep 1)): 51.05; At 10 uM (Jurkat cells [1]; FIG. 48, BR1 (Biorep 1)): 3318; Basal (Jurkat cells [1]; FIG. 48, BR2 (Biorep 2)): 59.4; FC (Jurkat cells [1]; FIG. 48, BR2 (Biorep 2)): 53.30; At 10 uM (Jurkat cells [1]; FIG. 48, BR2 (Biorep 2)): 3166; basal AcGFP expression (Jurkat cells [1]; absence of tacrolimus): lowest basal AcGFP expression; EC90 [3, 7]: 388 nM; FC (fold change) [3]: 51.0; EC90 [3, 8]: 390 nM
B3 |  |  | 14 |  | 3.9 |  |  |  |  | 0.35 | 3.59 | 
B4 | 1320 nM | 1140 nM | 51.33 | 63.5 | 7.92 | 1010 nM | 11.2 | 1080 nM | largest difference between rapamycin and tacrolimus | 0.97 | 6.48 | 
B5 |  |  | 1.25 |  | 0.84 |  |  |  |  |  | 1.49 | 
B6 | 27.2 nM | 25 nM | 18.6 | 21.2 | 6.9 | 170 nM | 7.6 | 171 nM |  | 0.20 | 2.70 | Fold Change (Jurkat cells [1]; tacrolimus, Table 6): 15.75; FC (Jurkat cells [1]; tacrolimus, FIG. 35): 24.07; Peak (Jurkat cells [1]; tacrolimus, FIG. 35): 5193; FC (Jurkat cells [1]; tacrolimus, FIG. 36): 24.07; Peak (Jurkat cells [1]; tacrolimus, FIG. 36): 5193; FC (Jurkat cells [1]; tacrolimus, FIG. 37): 24.07; Peak (Jurkat cells [1]; tacrolimus, FIG. 37): 5193; FC (Jurkat cells [1]; tacrolimus, FIG. 38): 24.07; Peak (Jurkat cells [1]; tacrolimus, FIG. 38): 5193
B7 | 947 nM | 808 nM | 41.68 | 61.3 | 5.6 | 1140 nM | 7.5 | 1180 nM | largest difference between rapamycin and tacrolimus | 0.72 | 7.44 | 
B8 |  |  | 18.36 |  | 8.77 |  |  |  |  | 0.56 | 2.09 | 
B9 |  |  |  |  |  |  |  |  |  |  |  | Basal (Jurkat cells [1]; FIG. 46, BR1 (Biorep 1)): 70.7; FC (Jurkat cells [1]; FIG. 46, BR1 (Biorep 1)): 101.12; At 10 uM (Jurkat cells [1]; FIG. 46, BR1 (Biorep 1)): 7149; Basal (Jurkat cells [1]; FIG. 46, BR2 (Biorep 2)): 55.2; FC (Jurkat cells [1]; FIG. 46, BR2 (Biorep 2)): 72.21; At 10 uM (Jurkat cells [1]; FIG. 46, BR2 (Biorep 2)): 3986; EC90 [3, 7]: 1090 nM; FC (fold change) [3]: 101.1; EC90 [3, 8]: 1190 nM
